Results published in PMC10716038, “Talin and kindlin use integrin tail allostery and direct binding to activate integrins” (Nature Structural & Molecular Biology, 2023).
Positions count from the first letter of the chain named. Values joined by “and” are separate entries in the source; they are usually repeats but may differ in a detail not shown here. Equal entries are not always repeated. No end group written: not given here.

Tests used:
Details in all cases: both partners purified
[1] = biological target: T1, talin-1 head domain (THD1) (UniProt P26039 1-405); experiment: MST; apparent; THD1 titrated to 488–β3-CT in the presence of 30-40 µM KIND2-Y13A; MST buffer
T1 construct: talin-1 (TLN1) head domain (THD), residues 1-405; murine TLN1 cDNA is named only for the cell lines; also called WT; source: E. coli (DE3) Rosetta 2, purified (IMAC, SEC); not shown: His10-SUMO, N-terminal, cleaved
T1 sequence (P26039 1-405): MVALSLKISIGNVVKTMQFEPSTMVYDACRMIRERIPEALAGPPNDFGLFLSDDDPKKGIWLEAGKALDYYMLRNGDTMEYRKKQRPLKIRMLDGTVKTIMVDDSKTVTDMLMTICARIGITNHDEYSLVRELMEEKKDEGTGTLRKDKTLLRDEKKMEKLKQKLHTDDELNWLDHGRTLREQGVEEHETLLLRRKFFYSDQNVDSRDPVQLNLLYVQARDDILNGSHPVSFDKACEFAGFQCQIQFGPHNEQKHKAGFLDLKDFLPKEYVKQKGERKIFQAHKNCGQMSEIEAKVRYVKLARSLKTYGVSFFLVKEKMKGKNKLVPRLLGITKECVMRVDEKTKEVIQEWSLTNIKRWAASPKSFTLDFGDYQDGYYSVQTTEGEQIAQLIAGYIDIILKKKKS

KIND2 Y13A = biological target: T2, KIND2 Y13A (UniProt Q8CIB5 1-680, Y13A); experiment: MST; apparent; KIND2-Y13A titrated to 488–β3-CT or KIND2 to 488–β1-spacer-CT in the presence of 300-400 µM THD1; MST buffer
T2 construct: kindlin-2 (KIND2), recombinant, Y13A; source: E. coli Rosetta, purified (IMAC, SEC); not shown: His10-SUMO, N-terminal, cleaved
T2 sequence (looked up): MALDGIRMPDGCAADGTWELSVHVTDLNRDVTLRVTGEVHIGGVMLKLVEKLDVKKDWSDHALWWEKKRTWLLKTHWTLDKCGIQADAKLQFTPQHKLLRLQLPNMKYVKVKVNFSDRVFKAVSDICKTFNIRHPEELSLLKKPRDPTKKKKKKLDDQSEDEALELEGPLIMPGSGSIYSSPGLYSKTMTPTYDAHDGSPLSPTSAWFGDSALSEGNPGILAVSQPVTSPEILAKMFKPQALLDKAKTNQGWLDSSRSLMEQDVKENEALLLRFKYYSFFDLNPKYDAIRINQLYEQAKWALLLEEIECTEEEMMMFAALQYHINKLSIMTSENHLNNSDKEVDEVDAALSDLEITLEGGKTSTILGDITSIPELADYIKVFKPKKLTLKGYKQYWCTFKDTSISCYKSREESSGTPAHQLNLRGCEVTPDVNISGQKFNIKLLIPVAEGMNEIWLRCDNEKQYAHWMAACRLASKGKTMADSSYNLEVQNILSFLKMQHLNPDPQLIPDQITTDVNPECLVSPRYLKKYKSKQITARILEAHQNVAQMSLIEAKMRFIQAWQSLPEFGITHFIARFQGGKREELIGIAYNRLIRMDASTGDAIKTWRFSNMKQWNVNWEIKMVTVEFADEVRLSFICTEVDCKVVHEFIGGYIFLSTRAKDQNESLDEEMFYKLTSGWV

kindlin-2 (KIND2) [2] = biological target: T3, kindlin-2 (KIND2) (UniProt Q8CIB5 1-680); experiment: MST; apparent; KIND2 titrated to 488–β3-CT in the presence of 250-450 µM TLN2-F3; MST buffer
T3 construct: kindlin-2 (KIND2), recombinant; with the F1 loop and the PH domain (unlike ΔKIND2); source: E. coli Rosetta, purified (IMAC, SEC); not shown: His10-SUMO, N-terminal, cleaved
T3 sequence (looked up): T2 sequence (looked up) with A13Y

[3] = biological target: T4, talin-2 head domain (THD2) (UniProt Q71LX4 1-408); experiment: MST; unlabelled protein titrated to 50-200 nM ATTO 488-labelled β-CT peptide, no third protein; 20 mM Tris pH 7.5, 200 mM NaCl, 1 mM TCEP, 0.05% Tween-20; Kd of individual titrations (in S0002 mean and sd, n = 2)
T4 construct: talin-2 (TLN2) head domain (THD), residues 1-408; source: E. coli (DE3) Rosetta 2, purified (IMAC, SEC); not shown: His10-SUMO, N-terminal, cleaved
T4 sequence (Q71LX4 1-408): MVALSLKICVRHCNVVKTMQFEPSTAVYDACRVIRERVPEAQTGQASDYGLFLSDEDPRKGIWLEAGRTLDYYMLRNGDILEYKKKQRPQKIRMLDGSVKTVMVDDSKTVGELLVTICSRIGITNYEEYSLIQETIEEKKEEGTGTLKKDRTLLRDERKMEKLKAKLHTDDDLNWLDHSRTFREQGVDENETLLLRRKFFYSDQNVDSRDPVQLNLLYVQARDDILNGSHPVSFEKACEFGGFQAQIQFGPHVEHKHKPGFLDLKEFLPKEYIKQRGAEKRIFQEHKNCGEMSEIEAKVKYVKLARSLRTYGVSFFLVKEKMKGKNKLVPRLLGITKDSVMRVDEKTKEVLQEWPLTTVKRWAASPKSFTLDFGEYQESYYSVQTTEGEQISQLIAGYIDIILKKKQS

kindlin-2 (KIND2) [4] = biological target: T3, kindlin-2 (KIND2); experiment: MST; apparent; KIND2 titrated to 488–β3-CT in the presence of 100–400 µM THD2; MST buffer

Kd [1]: 283 µM and 241 µM and 188 µM and 159 µM
Kd (KIND2 Y13A): 24 µM and 20.7 µM and 18.8 µM
Kd (kindlin-2 (KIND2) [2]): 55.8 µM and 30.2 µM and 54.2 µM
Kd [3]: 31.7 µM and 32.1 µM and 49.1 µM
Kd (kindlin-2 (KIND2) [4]): 20.9 µM and 29.1 µM and 29.5 µM
B1: ATTO 488-labeled integrin β3 cytoplasmic tail (488–β3-CT) (peptide, UniProt O54890 741-787, looked up)
peptide: {ATTO 488}-KLLITIHDRKEFAKFEEERARAKWDTANNPLYKEATSTFTNITYRGT
notes: integrin β3 cytoplasmic tail (β3-CT); source: synthetic peptide (MPIB Core Facility)
